Measurements taken from US20200131249A1 (EVOLVERITAS KFT, published 2020).
Where no end group is shown, it is not given here.

B1: rat MASP-2 catalytic fragment CCP1-CCP2-SP (enzyme)
chain: MTQPCPDPTAPPNGHISPVQATYVLKDSFSVFCKTGFELLQGSVPLKSFTAVCQKDGSWDRPIPECSIIDCGPPDDLPNGHVDYITGPEVTTYKAVIQYSCEETFYTMSSNGKYVCEADGFWTSSKGEKSLPVCKPVCGLSTHTSGGRIIGGQPAKPGDFPWQVLLLGETTAAGALIHDDWVLTAAHAVYGKTEAMSSLDIRMGILKRLSPHYTQAWPEAVFIHEGYTHGAGFDNDIALIKLKNKVTINRNIMPICLPRKEAASLMKTDFVGTVAGWGLTQKGFLARNLMFVDIPIVDHQKCATAYTKQPYPGAKVTVNMLCAGLDAGGKDSCRGDSGGALVFLDNETQRWFVGGIVSWGSINCGGSEQYGVYTKVTNYIPWIENIINNF
notes: Mw 42309 Da; also called rat MASP-2cf; MASP2cf

What was measured:
[1] = molecular target: T1, human MASP-2 enzyme as present in normal human serum (human, UniProt O00187 16-686); experiment: cell-based or functional assay
T1 sequence (O00187 16-686 limits assumed): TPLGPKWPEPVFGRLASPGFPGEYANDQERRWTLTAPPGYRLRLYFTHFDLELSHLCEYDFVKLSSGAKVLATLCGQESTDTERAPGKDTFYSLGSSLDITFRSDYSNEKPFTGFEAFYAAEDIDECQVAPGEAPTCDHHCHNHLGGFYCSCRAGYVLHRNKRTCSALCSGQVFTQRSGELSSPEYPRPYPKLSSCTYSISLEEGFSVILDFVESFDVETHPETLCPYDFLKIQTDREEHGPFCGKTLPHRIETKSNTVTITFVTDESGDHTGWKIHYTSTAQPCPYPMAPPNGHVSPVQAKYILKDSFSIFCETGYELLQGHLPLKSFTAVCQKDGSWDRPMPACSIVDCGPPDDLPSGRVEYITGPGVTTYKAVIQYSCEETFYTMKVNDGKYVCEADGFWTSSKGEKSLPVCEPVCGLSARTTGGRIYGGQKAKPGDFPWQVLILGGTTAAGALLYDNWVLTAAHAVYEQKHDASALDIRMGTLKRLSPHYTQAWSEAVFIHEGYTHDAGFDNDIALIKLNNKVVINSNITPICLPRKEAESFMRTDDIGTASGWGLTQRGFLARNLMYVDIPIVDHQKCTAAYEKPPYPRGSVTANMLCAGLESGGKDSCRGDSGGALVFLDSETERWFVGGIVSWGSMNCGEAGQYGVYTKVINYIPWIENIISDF

[2] = molecular target: T2, human MASP-1 catalytic fragment CCP1-CCP2-SP (human, UniProt P48740 298-699, limits assumed); experiment: enzyme inhibition, Z-L-Lys-SBzl/DTNB, catalytic fragment
T2 construct: domain: CCP1-CCP2-SP
T2 sequence (looked up): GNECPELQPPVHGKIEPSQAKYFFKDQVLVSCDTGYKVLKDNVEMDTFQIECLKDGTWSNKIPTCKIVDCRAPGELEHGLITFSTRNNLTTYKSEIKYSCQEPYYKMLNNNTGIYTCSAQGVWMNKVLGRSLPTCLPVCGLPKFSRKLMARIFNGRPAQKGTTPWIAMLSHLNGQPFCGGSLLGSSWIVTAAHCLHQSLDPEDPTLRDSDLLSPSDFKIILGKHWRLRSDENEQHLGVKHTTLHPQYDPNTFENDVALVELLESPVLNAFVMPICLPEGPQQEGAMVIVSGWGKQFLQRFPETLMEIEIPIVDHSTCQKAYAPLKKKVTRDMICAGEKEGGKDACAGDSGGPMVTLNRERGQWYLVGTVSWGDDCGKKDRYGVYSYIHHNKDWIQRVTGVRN
Method: (§1) For determining the KI of the inhibitors on MASP enzymes we used catalytic enzyme fragments containing the three C-terminal domains: CCP1-CCP2-SP. The synthetic substrate used in the measurements was Z-L-Lys-SBzl hydrochloride (Sigma, C3647), from which a 10 mM stock solution was prepared. The reactions were performed in a volume of 0.2 ml at room temperature in a buffer consisting of 20 mM HEPES; 145 mM NaCl; 5 mM CaCl₂; 0.05% Triton-X100. The substrate cleaved by the enzyme entered into a reaction with the 5,5′-Dithiobis(2-nitrobenzoic acid) (DTNB, Ellman's reagent, Sigma—D8130) auxiliary substrate present in the solution in 2-fold excess to Z-L-Lys-SBzl. The release of the chromophore group created in this way was monitored via the change of absorbance at 410 nm using a BioTek Synergy H4 multimode microplate reader.
(§2) A dilution sequence was prepared from the individual inhibitors, the enzyme was added to it, and it was incubated for 2 hours at room temperature. The samples were transferred on a 96-well microtiter plate (Nunc 269620). The reactions were started by adding the mixture of the substrate and the auxiliary substrate to the samples. The concentration of the substrate and the length of the measuring period were chosen so that under the given conditions the enzyme should consume less than 10% of the substrate. In this case we used 250 μM Z-L-Lys-SBzl and 500 μM DTNB in the reactions. In the course of measuring, a method developed for the characterisation of tight-binding inhibitors was used (Empie, 1982). The concentration of the product was measured as a function of reaction time. The slope of the straight line determined for the initial phase of the reaction was normalised with the slope obtained for the uninhibited enzyme reaction, and this value was multiplied with the total enzyme concentration. As a result of this we obtained the free enzyme concentration, which was plotted as a function of the total inhibitor concentration and the Ki value was determined according to the following equation: […]

[3] = molecular target: rat MASP-2 as present in rat serum (rat, UniProt Q9JJS8 20-685); experiment: cell-based or functional assay
[4] = molecular target: T3, human MASP-2 catalytic fragment CCP1-CCP2-SP (human, UniProt O00187 287-686, limits assumed); experiment: enzyme inhibition, Z-L-Lys-SBzl/DTNB, tight-binding fit, catalytic fragment CCP1-CCP2-SP
T3 construct: domain: CCP1-CCP2-SP; also called human MASP-2cf; human MASP2cf
T3 sequence (O00187 287-686 limits assumed): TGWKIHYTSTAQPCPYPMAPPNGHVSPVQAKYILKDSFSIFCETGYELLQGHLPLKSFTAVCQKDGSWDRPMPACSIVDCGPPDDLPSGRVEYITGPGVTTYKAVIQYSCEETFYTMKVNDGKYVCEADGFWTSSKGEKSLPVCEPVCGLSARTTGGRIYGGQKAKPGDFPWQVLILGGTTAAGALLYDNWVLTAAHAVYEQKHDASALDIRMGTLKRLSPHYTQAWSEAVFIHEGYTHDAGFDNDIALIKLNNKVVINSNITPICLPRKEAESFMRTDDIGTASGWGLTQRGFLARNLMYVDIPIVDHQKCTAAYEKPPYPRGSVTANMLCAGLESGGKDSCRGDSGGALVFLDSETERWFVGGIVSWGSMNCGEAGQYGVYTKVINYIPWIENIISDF
Method: as §1, §2
(§3) where E is the free (uninhibited) enzyme concentration, and E₀ is the total enzyme concentration. The stock concentration of the inhibitors was determined by titration with bovine trypsin of known concentration. The results were calculated as the average of parallel measurements.

[5] = molecular target: B1; experiment: as above
Method: as §1, §2, §3

[6] = molecular target: bovine trypsin (Sigma-T1426) (bovine, UniProt P00760 24-246); experiment: fluorometric residual activity, Z-Gly-Pro-Arg-AMC, tight-binding fit
bovine trypsin (Sigma-T1426), sequence (P00760 24-246): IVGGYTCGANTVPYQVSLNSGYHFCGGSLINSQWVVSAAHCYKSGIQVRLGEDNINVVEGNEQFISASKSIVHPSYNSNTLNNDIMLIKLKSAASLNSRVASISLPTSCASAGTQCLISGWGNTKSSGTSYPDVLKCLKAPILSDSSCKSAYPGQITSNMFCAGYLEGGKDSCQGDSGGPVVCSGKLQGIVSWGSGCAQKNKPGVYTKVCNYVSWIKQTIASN
Method: The KI values of the inhibitors on bovine trypsin were also determined. In these experiments, we used bovine trypsin (Sigma—T1426). The concentration of trypsin was determined by fluorescent active-site titration based on Jameson 1973. The measurements were done in 200 μL final assay volume of 50 mM Tris, 10 mM CaCl2, 0.005% Triton X-100 pH 8.0 buffer on 96-well black microtiter plates (Thermo Scientific Sterilin—611F96BK) using a BioTek Synergy H4 multimode microplate reader.
Constant predefined concentrations of the enzymes were mixed with serial dilutions of the inhibitors and co-incubated at room temperature until reaching equilibrium. The incubation times were 5 h in the case of the protein according to SEQ ID NO: 11, 8 h in the case of TFPI-D2 and the protein according to SEQ ID NO: 17 and 24 h in the case of the protein according to SEQ ID NO: 14. Then, 10 μM (final concentration) of Z-Gly-Pro-Arg-AMC substrate was added to the samples. The concentration of the free enzyme was determined through measuring the residual enzyme activity in a fluorometric kinetic assay at 380 nm excitation wavelength and 460 nm emission wavelength in two parallel experiments. Analyses of the data were done as described above.

[7] = molecular target: T4, human MASP-3 catalytic fragment CCP1-CCP2-SP (human, UniProt P48740-2 298-728, limits assumed); experiment: enzyme inhibition, Z-L-Lys-SBzl/DTNB, catalytic fragment
T4 construct: domain: CCP1-CCP2-SP
T4 sequence (looked up): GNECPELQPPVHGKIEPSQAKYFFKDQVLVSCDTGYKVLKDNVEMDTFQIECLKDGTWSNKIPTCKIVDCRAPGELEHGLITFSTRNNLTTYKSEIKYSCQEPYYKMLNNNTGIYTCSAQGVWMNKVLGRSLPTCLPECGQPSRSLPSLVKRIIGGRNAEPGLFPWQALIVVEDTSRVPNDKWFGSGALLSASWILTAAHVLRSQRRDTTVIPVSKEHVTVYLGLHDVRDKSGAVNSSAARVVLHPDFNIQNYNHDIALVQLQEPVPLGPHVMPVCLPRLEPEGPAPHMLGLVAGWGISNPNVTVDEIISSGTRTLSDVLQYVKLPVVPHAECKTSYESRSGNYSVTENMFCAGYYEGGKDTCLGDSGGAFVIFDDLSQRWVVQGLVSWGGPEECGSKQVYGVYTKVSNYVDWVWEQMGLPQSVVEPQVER
Method: as §1, §2

[8] = molecular target: T3, human MASP-2 catalytic fragment …; experiment: ratio of Ki values, enzyme inhibition
Method: as §1, §2

[9] = molecular target: B1; experiment: ratio of Ki values, enzyme inhibition
Method: as §1, §2

[10] = molecular target: T1, human MASP-2 enzyme as present in …; experiment: cell-based or functional assay; remark: listed apart in the source
[11] = molecular target: T5, TFPI-D2, second Kunitz domain (residues 121-178) of human Tissue Factor Pathway Inhibitor-1 (human, UniProt P10646 121-178); experiment: enzyme inhibition
T5 construct: Recombinant, made as m1; also called parental TFPI-D2; human TFPI-D2
T5 sequence: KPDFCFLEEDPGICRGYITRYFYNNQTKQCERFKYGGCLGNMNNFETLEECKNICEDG

[12] = molecular target: T4, human MASP-3 catalytic fragment …; experiment: enzyme inhibition, Z-L-Lys-SBzl/DTNB, catalytic fragment; approximation based on a single measurement
Method: as §1
A dilution sequence was prepared from the individual inhibitors, the enzyme was added to it, and it was incubated for 2 hours at room temperature. The samples were transferred on a 96-well microtiter plate (Nunc 269620). […] The concentration of the product was measured as a function of reaction time. The slope of the straight line determined for the initial phase of the reaction was normalised with the slope obtained for the uninhibited enzyme reaction, and this value was multiplied with the total enzyme concentration. […]

Binder | IC50 (nM), lectin pathway activity in diluted human serum (WIELISA, C5b-9) [1] | binding result [2] | IC50 (nM), C3 deposition, lectin pathway in diluted rat serum on mannan [3] | IC50 (nM), C4 deposition, lectin pathway in diluted rat serum on mannan [3] | IC50 (nM), C5b-9 deposition, lectin pathway in diluted rat serum on mannan [3] | Ki [4] | Ki [5] | Ki [6] | binding result [7] | fold more potent than SGMI-2 [8] | fold reduction of binding affinity against the protein of SEQ ID NO: 11 [8] | fold higher binding affinity than human TFPI-D2 [9] | fold more potent than SGMI-2 [9] | fold of the lectin pathway IC50 against SGMI-2 [10] | binding result [11] | Ki [12]
GSGEVTCEPGTTFKDKCNTCRCGSDGKSAVCTKLWCNQ (designed binder, Comparator from WO 2012/007777) [SGMI-2 (SGCI-based MASP inhibitor 2)] | 174 nM | no binding | 2240 nM | 457 nM | 4000 nM | 8.1 nM | 22.7 nM | 100 nM | – | – | – | – | – | – | – | –
protein according to SEQ ID NO: 11 (TFPI-D2 variant with the inhibitor loop FCRAVKR) (designed binder, ends and bridges not checked; cysteine pairing not given here, Made in E. coli as a His6-S100A4 fusion and freed by TEV protease) KPDFCFLEEDPGFCRAVKRRYFYNNQTKQCERFKYGGCLGNMNNFETLEECKNICEDG | 35 nM | no binding | – | – | – | 2 nM | 640 nM | 0.094 nM | no binding | 3 fold | – | – | – | – | – | –
protein according to SEQ ID NO: 17 (TFPI-D2 variant with the inhibitor loop VCRAVKR) (designed binder, ends and bridges not checked; cysteine pairing not given here, Made as m1) KPDFCFLEEDPGVCRAVKRRYFYNNQTKQCERFKYGGCLGNMNNFETLEECKNICEDG | 380 nM | no binding | – | – | – | 36.7 nM | 7.5 nM | 0.017 nM | no binding | – | 18 fold | 25 fold | ~3 fold | 2 fold | – | –
B1 | – | – | – | – | – | – | – | – | – | – | – | – | – | – | binds | –
protein according to SEQ ID NO: 14 (TFPI-D2 variant with the inhibitor loop PCRAVKR) (designed binder, ends and bridges not checked; cysteine pairing not given here, Made as m1) KPDFCFLEEDPGPCRAVKRRYFYNNQTKQCERFKYGGCLGNMNNFETLEECKNICEDG | 90 nM | no binding | 869 nM | 108 nM | 940 nM | 7.9 nM | 7.2 nM | 0.004 nM | – | – | 4 fold | 25 fold | ~3 fold | – | – | ~30000 nM
